Positions count from the first letter of the chain named. Numbers in names are those of the source.
T1: in vitro translated 35S-labeled CBP (1621-1877) (UniProt P45481 1621-1877)
T1 construct: also called in vitro translated CBP II
T1 sequence (looked up): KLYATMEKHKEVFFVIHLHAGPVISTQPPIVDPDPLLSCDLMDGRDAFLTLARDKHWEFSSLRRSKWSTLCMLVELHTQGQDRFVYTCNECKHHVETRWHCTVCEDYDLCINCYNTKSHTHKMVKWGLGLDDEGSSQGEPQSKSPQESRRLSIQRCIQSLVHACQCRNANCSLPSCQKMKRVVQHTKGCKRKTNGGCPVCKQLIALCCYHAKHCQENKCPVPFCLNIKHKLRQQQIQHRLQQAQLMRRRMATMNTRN

T2: in vitro translated radiolabeled TFIIB (UniProt Q00403 1-316)
T2 sequence (looked up): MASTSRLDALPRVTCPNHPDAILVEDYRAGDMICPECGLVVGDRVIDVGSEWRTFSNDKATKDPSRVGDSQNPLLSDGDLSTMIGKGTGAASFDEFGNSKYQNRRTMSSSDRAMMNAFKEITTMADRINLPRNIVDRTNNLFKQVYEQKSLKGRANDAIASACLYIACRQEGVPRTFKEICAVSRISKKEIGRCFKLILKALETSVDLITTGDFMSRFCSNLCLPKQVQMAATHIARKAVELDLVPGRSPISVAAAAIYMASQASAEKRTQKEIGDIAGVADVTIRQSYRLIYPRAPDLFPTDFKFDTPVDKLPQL

T3: GST-CBP I (residues 461-662) (UniProt P45481 461-662)
T3 construct: range 461-662; also called GST-CBP I (461-662)
T3 sequence: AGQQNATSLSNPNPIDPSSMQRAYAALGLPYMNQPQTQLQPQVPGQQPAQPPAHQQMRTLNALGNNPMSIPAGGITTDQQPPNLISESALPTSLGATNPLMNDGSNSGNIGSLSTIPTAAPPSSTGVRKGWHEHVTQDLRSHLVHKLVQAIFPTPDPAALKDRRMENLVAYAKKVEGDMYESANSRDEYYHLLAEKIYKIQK

T4: GST-CBP II (residues 1621-1877) (UniProt P45481 1621-1877)
T4 construct: also called GST-CBP II domain
T4 sequence: T1 sequence (looked up)

T5: GST-E6AP (UniProt Q05086 24-875)
T5 sequence: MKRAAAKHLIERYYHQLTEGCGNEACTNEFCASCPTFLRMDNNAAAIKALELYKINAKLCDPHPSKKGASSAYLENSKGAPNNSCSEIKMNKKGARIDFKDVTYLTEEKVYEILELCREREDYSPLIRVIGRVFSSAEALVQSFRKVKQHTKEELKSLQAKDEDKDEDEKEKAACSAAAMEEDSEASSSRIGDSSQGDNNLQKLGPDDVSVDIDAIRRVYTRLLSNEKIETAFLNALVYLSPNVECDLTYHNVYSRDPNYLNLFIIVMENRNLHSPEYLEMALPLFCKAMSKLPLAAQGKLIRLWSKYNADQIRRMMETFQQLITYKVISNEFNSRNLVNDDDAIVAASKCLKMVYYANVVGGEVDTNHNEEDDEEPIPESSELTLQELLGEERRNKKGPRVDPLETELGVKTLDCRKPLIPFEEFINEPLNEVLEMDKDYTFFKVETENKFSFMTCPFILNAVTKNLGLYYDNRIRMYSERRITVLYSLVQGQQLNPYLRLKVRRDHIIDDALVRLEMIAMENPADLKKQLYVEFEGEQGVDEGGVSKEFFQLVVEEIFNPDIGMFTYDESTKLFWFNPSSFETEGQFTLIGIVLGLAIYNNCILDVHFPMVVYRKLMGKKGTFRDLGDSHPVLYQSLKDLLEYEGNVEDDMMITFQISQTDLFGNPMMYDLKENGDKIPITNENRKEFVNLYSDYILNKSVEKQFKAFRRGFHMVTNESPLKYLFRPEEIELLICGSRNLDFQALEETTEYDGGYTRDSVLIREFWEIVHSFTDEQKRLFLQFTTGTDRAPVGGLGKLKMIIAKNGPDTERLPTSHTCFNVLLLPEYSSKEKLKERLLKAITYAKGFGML

T6: GST-CBP fusion protein (CBP residues not stated) (UniProt P45481 1621-1877)
T6 sequence: T1 sequence (looked up)

B1: GST-Mdm2 (466-484) (other, human, UniProt Q00987 466-484, looked up, not shown: a dimerising Fc or GST)
chain: KKLKKRNKPCPVCRQPIQM
notes: also called wild type Mdm2 TRAM; Mdm2 TRAM
B2: GST-16E6 C-terminal half (85-151) (other)
chain: GTTLEQQYNKPLCDLLIRCINCQKPLCPEEKQRHLDKKQRFHNIRGRWTGRCMSCCRSSRTRRETQL
B3: GST-6E6 (other)
chain: MESANASTSATTIDQLCKTFNLSMHTLQINCVFCKNALTTAEIYSYAYKHLKVLFRGGYPYAACACCLEFHGKINQYRHFDYAGYATTVEEETKQDILDVLIRCYLCHKPLCEVEKVKHILTKARFIKLNCTWKGRCLHCWTTCMEDMLP
notes: mature
B4: in vitro translated and radiolabeled HPV-16 E6 (other)
chain: MFQDPQERPRKLPQLCTELQTTIHDIILECVYCKQQLLRREVYDFAFRDLCIVYRDGNPYAVCDKCLKFYSKYSEYRHYCYSLYGTTLEQQYNKPLCDLLIRCINCQKPLCPEEKQRHLDKKQRFHNIRGRWTGRCMSCCRSSRTRRETQL
B5: GST-16E6 (other)
chain: B4 chain
B6: in vitro translated HPV-16 E6 L50G protein (other)
chain: B4 chain with L50G
B7: GST-11E6 (other)
chain: MESKDASTSATSIDQLCKTFNLSLHTLQIQCVFCRNALTTAEIYAYAYKNLKVVWRDNFPFAACACCLELQGKINQYRHFNYAAYAPTVEEETNEDILKVLIRCYLCHKPLCEIEKLKHILGKARFIKLNNQWKGRCLHCWTTCMEDLLP
B8: in vitro translated HPV-11 E6 protein (other)
chain: B7 chain
notes: mature
B9: GST-16E6 without C-terminal residues 148-151 (other)
chain: MFQDPQERPRKLPQLCTELQTTIHDIILECVYCKQQLLRREVYDFAFRDLCIVYRDGNPYAVCDKCLKFYSKYSEYRHYCYSLYGTTLEQQYNKPLCDLLIRCINCQKPLCPEEKQRHLDKKQRFHNIRGRWTGRCMSCCRSSRTRR
B10: GST-16E6 N-terminal half (1-84) (other)
chain: MFQDPQERPRKLPQLCTELQTTIHDIILECVYCKQQLLRREVYDFAFRDLCIVYRDGNPYAVCDKCLKFYSKYSEYRHYCYSLY
B11: MBP-CBP (residues 1808-1852) fusion protein (other)
chain: GCKRKTNGGCPVCKQLIALCCYHAKHCQENKCPVPFCLNIKHKLR
notes: Bacterially expressed

Assays:
[1] = molecular target: T1, in vitro translated 35S-labeled CBP …; experiment: GST-E6 fragment micro-affinity column
[2] = molecular target: in vitro translated 35S-methionine labelled p53 (wild type) (UniProt P04637 1-393); experiment: GST micro-column pull-down, IVT protein
Sequence of in vitro translated 35S-methionine labelled p53 (wild type) (P04637 whole entry): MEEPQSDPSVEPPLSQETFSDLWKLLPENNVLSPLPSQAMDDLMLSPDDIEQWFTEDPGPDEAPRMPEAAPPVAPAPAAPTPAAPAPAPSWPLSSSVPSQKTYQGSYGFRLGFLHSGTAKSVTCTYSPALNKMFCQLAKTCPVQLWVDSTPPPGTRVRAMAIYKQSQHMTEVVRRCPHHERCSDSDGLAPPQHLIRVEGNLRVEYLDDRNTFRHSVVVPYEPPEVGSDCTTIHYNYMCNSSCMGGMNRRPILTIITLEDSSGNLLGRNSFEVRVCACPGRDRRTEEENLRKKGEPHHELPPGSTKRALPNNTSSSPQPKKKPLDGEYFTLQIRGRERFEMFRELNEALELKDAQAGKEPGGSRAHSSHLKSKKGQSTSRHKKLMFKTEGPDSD

[3] = molecular target: T2, in vitro translated radiolabeled TFIIB; experiment: GST micro-column pull-down, IVT protein
[4] = molecular target: T1, in vitro translated 35S-labeled CBP …; experiment: GST-E6 micro-affinity column, IVT CBP II
[5] = molecular target: T3, GST-CBP I (residues 461-662); experiment: GST micro-affinity column, IVT radiolabelled E6
[6] = molecular target: T7, GST (control) (UniProt P08515 1-218 = GST); experiment: GST micro-affinity column, IVT radiolabelled E6
T7 construct: also called control GST column; GST alone
T7 sequence (P08515 whole entry): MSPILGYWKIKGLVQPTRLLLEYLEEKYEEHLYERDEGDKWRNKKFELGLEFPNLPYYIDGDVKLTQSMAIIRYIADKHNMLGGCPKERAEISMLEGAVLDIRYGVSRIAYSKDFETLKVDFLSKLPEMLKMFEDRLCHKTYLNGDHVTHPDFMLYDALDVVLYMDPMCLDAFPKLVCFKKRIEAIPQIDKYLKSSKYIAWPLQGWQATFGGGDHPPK

[7] = molecular target: T4, GST-CBP II (residues 1621-1877); experiment: GST micro-affinity column, IVT E6
[8] = molecular target: B11; experiment: MBP micro-affinity column, purified recombinant proteins, western blot
[9] = molecular target: T5, GST-E6AP; experiment: GST-E6AP micro-affinity column, IVT E6
[10] = molecular target: T6, GST-CBP fusion protein (CBP residues …); experiment: GST-CBP micro-affinity column, IVT E6
[11] = molecular target: B5; experiment: GST micro-affinity column, purified recombinant proteins, western blot

LIRCINCQKPLCPEEKQRHLDKKQRFHNIRGRWTGRCMSCCRSSRTRR (other) [GST-16E6 (amino acids 100-147)]
binding result [1]: binds

B1
binding result [2]: binds | binding result [3]: binds

B2
binding result [1]: binds

B3
binding result [4]: no binding

GCKRKTNGGCPVCKQLIAL (other, UniProt P45481 1808-1826, looked up, not shown: a dimerising Fc or GST, also called CBP TRAM) [GST-CBP (1808-1826)]
binding result [3]: binds

B4
binding result [5]: no binding | binding result [6]: no binding | binding result [7]: binds

B5
binding result [8]: binds | binding result [4]: binds

B6
binding result [9]: no binding

B7
binding result [4]: no binding

B8
binding result [10]: no binding | binding result [9]: no binding

B9
binding result [1]: binds

B10
binding result [1]: no binding

B11
binding result [11]: binds

From patent US6864054 (INSTITUTE OF MOLECULAR AND CELL BIOLOGY, dated 2005)
